{"source": "paper PMC9769499"}
{"target": "T1, CzcR (Pseudomonas aeruginosa PAO1) (UniProt Q9RLJ1)", "T1 sequence": "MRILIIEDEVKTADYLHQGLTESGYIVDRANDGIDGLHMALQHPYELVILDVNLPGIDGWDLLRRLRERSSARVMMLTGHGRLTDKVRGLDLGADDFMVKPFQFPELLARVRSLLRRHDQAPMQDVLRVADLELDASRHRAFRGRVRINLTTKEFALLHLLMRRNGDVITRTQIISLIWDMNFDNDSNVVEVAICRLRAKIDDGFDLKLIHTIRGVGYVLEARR", "assay": "EMSA", "settings": "Thermo Scientific EMSA kit per manufacturer's instructions; buffer, salt, pH and temperature not stated"}
{"sequence": "GCGCACATTGCTGATCAGTTGCGTGCGATCCACTCTCGACTCCCCTGCCCTGCGTATGGCGCCCGTGGGTGGGCGCCGAACAAACTTTTGACGCCGGAATGCGCGTCGGGCGGGTCATTGCAGGAACCGTTCCAACTTTTCAATTCATTGATTGAAAAGGGTTTTCGCCAA (double strand) [PflhA]", "binding": "no binding"}
{"sequence": "TTTCTTAGCCATGCCAAAAATCCGTCGCTATAGCGTCAAATGAAGGGTTTCACAGGGGCAGAGCAAGGGTTGTGCCATTTCTGCAACGCCGCCCCGCCTCCTGGGACCAGCCCCGGAGGGCTGTCCGAGATGATAGACGGCGCGGATATTACAGCCTGGCCACAGGAAATCATCCCCGTCTTTTGCGAAATTGCC (double strand) [PPA1442]", "binding": "binds"}
{"sequence": "GCAACCGTTCGGAACATTCTTCCCGTCGGGGGTAGGCGAGCGACTTGCCCTGTGGAATAATACTGTCTACTTATACAGTTGTTCGTGGCCGTCCGGCCGCCCTGACTTCGCGAGGACTTCAATGGA (double strand) [recA fragment (PrecA)]", "binding": "no binding"}
{"sequence": "GTTCCAGGGGCTTGCCACCCTTGCCGGCAAGCGGAAGCGGCTTGCCGCTTGCCGCTTCCGGGTTACCCTTAAATAAACTCAAGTTATTGAATATAAAGGTTTTTAATAATTTGGCACGGGCCTTGCTGAAGTGTTGGCGACGAAAGCCACACCGGCAAACAGGTTCGCAGCCATGAGCATCAGTTTCGA (double strand) [PflgB]", "binding": "binds"}
{"sequence": "CTGACTCATGACTCTTCCTCCAACAGCCGCGGCTTTTTTGACGCCGCCCGGCACTTTGCAGAGGAGTTAGCAACAAGGGTGCCAAGTCGGCCCCAAGGCCCGGCATCGGCGTTCGCCGCCAATGCCCGCGACCGCTGCAGGGTCCGTCCCTGCTCCGGTTATCGGCAGGCGCGCACGCTCGAACAG (double strand) [PfliE]", "binding": "no binding"}
{"sequence": "TACACAGTGTCCTGTTCGAAACCCGCGCCTGACGCGCGGGTTGAACGACTTGGCATGGTGCTTGCCCTATCGAAGGGATAGGGCAGTACATGCACGGTTTTTTGACGGAGATGGATTATGGCCGGTATCTCGATAGGAGTA (double strand) [PfliD]", "binding": "no binding"}
{"sequence": "TCATGGGTGTCGGGCTCGGTGTCGGCGAGGCGGCGAACTGGCTTTTCGAGTATTCGGACTATAGTCTTGCGGCTAGCAACCGATAACAAGAGGGAGCCTAGCAGTCCCCCTCCTTATCCTGTTCATTTCGCACGTCCGGTCCTCATGTCAAAAATCATCGGC (double strand) [PmotA]", "binding": "no binding"}
{"sequence": "CATCTGCTTCATACCTTGTGTTGTCGTCTTCCCGGAACGCCCCTTCCAGCGCTCTCCGGTATTGGCGGGAACGATGCGCCATCGCTCCCGGCCCGGCGGAAGCCACCTTCGCTTCCGTCACCCGCGCCACGCGCGGTTCTTCCCACGTCCTCA (double strand) [PfleN]", "binding": "binds"}
{"sequence": "GGTGATTTCCTCCAAAGGACCTATTTCGGTTACCTGAGCTTGCGATCTCTCGGCCTGCTTGCTCAGGTGCCCCAAGAATTCGCGTTCATGGTGTTTATCGGCGTTTCCCGGCGGAGCTTTAGAGAAAAAATCAACATTTTCTTTTTCTCTTCCTCTTCAGTGGGTTACATGCTTCGAAGAGGACTCGCCAATATCGGTCCTGAA (double strand) [PfliC]", "binding": "no binding"}
{"sequence": "GACGTACAGCATCTTGTCCATCGAATCCTCCAGGCACCGGCACAATCCGCCGGGCTTTCTTGCAGGTTATCCAGCAAGCGCCGTGCCAGAATTCGAAAAAACAATTAATACATTGATTTAAAAGGATTTTATAAAACAGAAAGCCTCCTTTCGGAGGCTTCGGGGGCAA (double strand) [PflgF]", "binding": "binds"}
